The subject of this series is MS2 coat protein. The series is described as follows: apparent KD of MS2 coat protein; designed switch direction (-1 OFF switch, 1 ON switch): 1; higher = weaker reporter binding. The method in brief: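 Stalled E. coli RNA polymerase transcribed designed RNA switches on Illumina chips, which were then titrated with SNAP-549-labelled MS2 coat protein, doubling from 0.7 or 1.5 nM to 3 µM. Steps lasted from 0.8–1.5 h at the lowest concentration to 10–20 min at the highest. The apparent KD is each design's median over clusters of curve-fitted normalised fluorescence.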

Where [1] appears, read: Eterna round: R95, input ligand: FMN 200 uM.
Setting [2] is: Eterna round: R95, input ligand: microRNA oligo, concentration not stated.
[3] abbreviates: Eterna round: R95, input ligand: none.
Setting [4] is: input ligand: microRNA oligo, concentration not stated.

Take “AACAAUCUAUCUGAGGAUAUCAUGAAAUAUACAUGAGGAUCACCCAUGUGCAGGAAAACUGCAUAUGAGAAGGCAGAUAGAUUGA [salish99_ss2_r3_034] (puzzle: Same State 2)”: the “apparent KD of MS2 coat protein” value reads like this: under setting [1], 59 nM; under setting [2], 612 nM; under setting [3], 3190 nM.

As to “AACAAUUUAUCUGAGGAUAUCAUGAAAUAAACAUGAGGAUCACCCAUGUGCAGGAAAACUGCAUAUGAGAAGGCAGAUAGAUUGA [salish99_ss2_r3_023] (puzzle: Same State 2)”, the “apparent KD of MS2 coat protein” value is, setting by setting: under setting [1], 53.5 nM; under setting [2], 821 nM; under setting [3], 1890 nM.

“AACAGUCGGCGAGGAUAUGGACGUACAGGUUUGCCUGUGCGGCUCACAUGAGGAUCACCCAUGUUCUAGAAGGCGCCACUGAGA [Lausrein] (Eterna round: R96, puzzle: Same State NG 2)”: the “apparent KD of MS2 coat protein” value was 19.9 nM (input ligand: FMN 200 uM), 48.8 nM under setting [4] and 81.2 nM (input ligand: none).

For the sequence “AACAUGAGGACAUGAACAUGAGGAUCACCCAUGUAUGUUUAUAAGGAUAUAUGAGGAGGAGGAGAAUAGAAGGUAUAGGGAGGG [This also seems to work] (Eterna round: R96, puzzle: Same State NG 3)”, the “apparent KD of MS2 coat protein” value runs as follows: (input ligand: FMN 200 uM) 45 nM; under setting [4], 35.5 nM; (input ligand: none) 43.2 nM.

Take “AACCCAAUGGAAGGAUAUGGCACCUUAUUGGUGCCAGAAGGUCCUAACAUGAGGAUCACCCAUGUGGGCCGGUCGAAAGACCGG [Fiskers NG1ss - 6] (Eterna round: R96, puzzle: Same State NG 1)”: the “apparent KD of MS2 coat protein” value by setting is: (input ligand: FMN 200 uM) 106 nM; under setting [4], 306 nM; (input ligand: none) 656 nM.

Take “AACCGCGCAGAUGCGCGACAUGAGGAUCACCCAUGUGGCACACAGGAUAUCCUGAACAGCUAUUAGGAGAAGGGUGAAGGCCUC [Oredceti] (Eterna round: R96, puzzle: Same State NG 3)”: the “apparent KD of MS2 coat protein” value (input ligand: FMN 200 uM) was 339 nM, the “apparent KD of MS2 coat protein” value under setting [4] was determined as 45.1 nM and the “apparent KD of MS2 coat protein” value (input ligand: none) is 127 nM.

With “AAGAAAGUUUACGAGGAUAUGUUCCGCAUAACAUGAGGAUCACCCAUGUGAACAAGAAAGGCGACGCAGAAGGCGUGAGCAAAAG [Mat - Same State 2 - Mod of UCT - D97] (puzzle: Same State 2)”, the “apparent KD of MS2 coat protein” value stood at 105 nM under setting [1], 199 nM under setting [2] and 412 nM under setting [3].

Regarding “AAGAACAAGCGAAAGGCCCGUCUUAUAUAACAUGAGGAUCACCCAUGUAAGGUGAAAGUUAGAGAGUGGAGGUUGAA [JR_SHM208A_Sub047] (puzzle: Sensor for hsa-mir-208a)”, the “apparent KD of MS2 coat protein” value is 284 nM under setting [1], 282 nM under setting [2] and 340 nM under setting [3].

As to “AAGAUGCUCGUAGGAUAUUGGAAAGGAAGUGUACAAGAAGGACGGUGUCACAUGAGGAUCACCCAUGUUACAGUCUAAUGACUG [PowerStrip SSNG 1.1] (Eterna round: R96, puzzle: Same State NG 1)”, the “apparent KD of MS2 coat protein” value reads like this: (input ligand: FMN 200 uM) 18.7 nM; under setting [4], 53.5 nM; (input ligand: none) 61.4 nM.

Consider “AAGCAUGAAAACAUGCAUAAAAAGUUUGUACAUGAGGAUCACCCAUGUAUGUGCAAGCUUUUUGCUCGUCUUGAAAA [JL SD Zipper 5] (Eterna round: R96, puzzle: Sensor for hsa-mir-208a)”, for which the “apparent KD of MS2 coat protein” value is, setting by setting: (input ligand: FMN 200 uM) 171 nM; under setting [4], 17.4 nM; (input ligand: none) 171 nM.

In the case of “AAGCCUGUAGCACAGGAUAUCCGAGGCAAAACAUGAGGAUCACCCAUGUCAAACGAAAAUCCGAAGGAGAAGGGUGAACAGGCUC [Laarededqu] (puzzle: Same State 2)”, the “apparent KD of MS2 coat protein” value under setting [1] was found to be 10.9 nM, the “apparent KD of MS2 coat protein” value under setting [2] worked out at 7.83 nM and the “apparent KD of MS2 coat protein” value under setting [3] was found to be 8.24 nM.

Consider “AAUAGUUGCGGGCAGGAUAUGUAUUAAAAUACAUGAGGAUCACCCAUGUGCGGGUAUAACACCCGACAGAAGGGCCAAUCGCGAC [Mat - Same State 2 - Mod of UCT - D94] (puzzle: Same State 2)”, for which the “apparent KD of MS2 coat protein” value was determined as 25.7 nM under setting [1], 216 nM under setting [2] and 233 nM under setting [3].

In the case of “AAUAUAUUAAGUGAGGAUAUCAUAGAAAAAACAUGAGGAUCACCCAUGUGGGAAACCUGGUCGGGUGAGAAGGCACUUAAUAUAU [Samwise Clockwise 29 - Jieux - Same State 2] (Eterna round: R96, puzzle: Same State 2)”, the “apparent KD of MS2 coat protein” value reads like this: (input ligand: FMN 200 uM) 85.2 nM; under setting [4], 823 nM; (input ligand: none) 1280 nM.

The values are drawn from the supplement of paper PMC9170038.
